The target in assay [1] is T1, wt MPER peptide (HIV-1, strain  (synthetic …)). Nature of the assay: cell-based or functional assay.
The target of assay [2] is T1, wt MPER peptide. Nature of the assay: BLI; Octet Red; Mabs captured on anti-human IgG Fc biosensors (10 µg/mL), peptides or ES2 as analyte in solution, two-fold dilutions 500 nM to 7.81 nM, PBS pH 7.4, 0.2% Tween 20, 60 s association and 60 s dissociation, no lipid; Langmuir 1:1 fit; also used for the alanine-substituted MPER peptides. The settings on record: both partners purified. In general terms: In BLI a coated tip is dipped into the sample, and binding shifts an interference pattern.

Assay [3] has as its target T2, linked peptide (HIV-1, strain  (synthetic …)).
T2 construct: source: synthetic peptide (Genscript)
Described as above. Particulars: both partners purified.

The target in assay [4] is T1, wt MPER peptide. Nature of the assay: BLI. The settings on record: both partners purified.
The target of assay [5] is T2, linked peptide. The assay is described as follows: BLI. The settings on record: both partners purified.

B1: 2F5 CDRH3 length-altered variant r2 (antibody, V domains shown)
VH: RITLKESGPPLVKPTQTLTLTCSFSGFSLSDFGVGVGWIRQPPGKALEWLAIIYSDDDKRYSPSLNTRLTITKDTSKNQVVLVMTRVSPVDTATYFCAHRRGPTLFGVIARGPVNAMDVWGQGITVTISS
VL: ALQLTQSPSSLSASVGDRITITCRASQGVTSALAWYRQKPGSPPQLLIYDASSLESGVPSRFSGSGSGTEFTLTISTLRPEDFATYYCQQLHFYPHTFGGGTRVDVR
A word on the Kd: it is the equilibrium constant for the complex coming apart. Low values mean higher affinity, high ones lower affinity. By koff is commonly meant the first-order rate constant of dissociation. Higher therefore signals fast dissociation. For orientation: kon means the second-order rate constant of association. A lower kon goes with slow association. For B1, in the assay with wt MPER peptide [1], the “IC50 of neutralisation of JR-CSF Env-pseudotyped HIV-1, single-cycle infectivity assay on TZM-bl cells” value was determined as 98 µg/mL and the “IC50 of neutralisation of JR-FL Env-pseudotyped HIV-1, single-cycle infectivity assay on TZM-bl cells” value was found to be 111 µg/mL. In the assay with wt MPER peptide [2], this molecule came in with a dissociation constant Kd of 90.2 nM, a koff of 0.0051 s⁻¹ and an on-rate constant (kon) of 50000 M⁻¹ s⁻¹. In addition, in the assay with linked peptide [3], the Kd came to 55.8 nM, the koff is 0.0085 s⁻¹ and the kon stood at 150000 M⁻¹ s⁻¹.

B2: 2F5 CDRH3 length-altered variant e4 (antibody, V domains shown)
VH: RITLKESGPPLVKPTQTLTLTCSFSGFSLSDFGVGVGWIRQPPGKALEWLAIIYSDDDKRYSPSLNTRLTITKDTSKNQVVLVMTRVSPVDTATYFCAHRRGPTTGGLFGVGGPIARGPVNAMDVWGQGITVTISS
VL: B1 VL
In the assay with wt MPER peptide [2], B2 showed a Kd of 239 nM, a koff of 0.0101 s⁻¹ and a kon of 40000 M⁻¹ s⁻¹. In the assay with linked peptide [3], this molecule came in with a Kd of 78.6 nM, a koff of 0.0104 s⁻¹ and an association rate constant (kon) of 130000 M⁻¹ s⁻¹.

B3: 2F5 CDRH3 length-altered variant r6 (antibody, V domains shown)
VH: RITLKESGPPLVKPTQTLTLTCSFSGFSLSDFGVGVGWIRQPPGKALEWLAIIYSDDDKRYSPSLNTRLTITKDTSKNQVVLVMTRVSPVDTATYFCAHRRGLFGVRGPVNAMDVWGQGITVTISS
VL: B1 VL
In the assay with wt MPER peptide [2], B3 gave a Kd of 390 nM, a koff of 0.0189 s⁻¹ and a kon of 40000 M⁻¹ s⁻¹. Further, in the assay with linked peptide [3], the affinity, expressed as Kd, was 125 nM; the koff worked out at 0.0237 s⁻¹; the kon came out at 180000 M⁻¹ s⁻¹.

B4: 2F5 CDRH3 length-altered variant e2 (antibody, V domains shown)
VH: RITLKESGPPLVKPTQTLTLTCSFSGFSLSDFGVGVGWIRQPPGKALEWLAIIYSDDDKRYSPSLNTRLTITKDTSKNQVVLVMTRVSPVDTATYFCAHRRGPTTGLFGVGPIARGPVNAMDVWGQGITVTISS
VL: B1 VL
On to B4, for which, in the assay with wt MPER peptide [2], the affinity, expressed as Kd, was 463 nM; the koff was 0.0087 s⁻¹; the kon is 10000 M⁻¹ s⁻¹. Besides, in the assay with linked peptide [3], the affinity, expressed as Kd, was 26.9 nM; the off-rate constant (koff) was 0.0035 s⁻¹; the kon turned out to be 130000 M⁻¹ s⁻¹.

B5: 2F5 CDRH3 length-altered variant r4 (antibody, V domains shown)
VH: RITLKESGPPLVKPTQTLTLTCSFSGFSLSDFGVGVGWIRQPPGKALEWLAIIYSDDDKRYSPSLNTRLTITKDTSKNQVVLVMTRVSPVDTATYFCAHRRGPLFGVARGPVNAMDVWGQGITVTISS
VL: B1 VL
In the assay with wt MPER peptide [2], B5 came in with a Kd of 382 nM, a koff of 0.0081 s⁻¹ and a kon of 20000 M⁻¹ s⁻¹. In the assay with linked peptide [3], the Kd amounted to 96.8 nM, the koff was found to be 0.0105 s⁻¹ and the association rate constant (kon) was found to be 100000 M⁻¹ s⁻¹.

B6: wt 2F5 antibody (antibody, V domains shown)
VH: RITLKESGPPLVKPTQTLTLTCSFSGFSLSDFGVGVGWIRQPPGKALEWLAIIYSDDDKRYSPSLNTRLTITKDTSKNQVVLVMTRVSPVDTATYFCAHRRGPTTLFGVPIARGPVNAMDVWGQGITVTISS
VL: B1 VL
notes: also called 2F5 Mab; Mab 2F5
Turning to B6, in the assay with wt MPER peptide [4], binding was characterised by a dissociation constant (Kd) of 3.1 nM, the koff amounted to 0.0007 s⁻¹ and the kon amounted to 230000 M⁻¹ s⁻¹. For the same molecule, in the assay with linked peptide [5], binding was characterised by a dissociation constant (Kd) of 2.2 nM, the koff worked out at 0.0007 s⁻¹ and the kon was 360000 M⁻¹ s⁻¹.
